# Test: yeast display, Sf9 membrane polyspecificity reagent, FACS + sequencing; frameworks hold sequencing errors
# Outline: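 A nanobody's polyreactivity label depends on the gate it was sorted from. Yeast display cells were stained with 10% biotinylated, detergent-solubilized Sf9 membrane reagent for 1 hour at 4 °C, enriched on streptavidin microbeads and sorted by FACS. The low and high (top ~1%) gates were set on anti-HA fluorescence for expression and streptavidin fluorescence for reagent binding.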
row,Sequence,polyreactivity (PSR sort gate)
1,QVQLVESGGGLVQPGGSLRLSCAASGFIFPSYDMGWYIQAPGKERELVAAITSDVNSYYADSVKGRFTISRDNAKNTVYLQMTSLKPEDTAFYSCNADADDYRDYQDYDYWGQGTQVTVSS,low polyreactivity
2,QVQLVESGGGLVQPGGSLRLSCAASGFTFYPYVMGWYRQAPGKERELVAPINSGGARTYYADSEKGRFTISRDNAKNTVYYQIIRLKPEDTAVYYCAARTVVGGRIYYYWGQGTQVTVSS,low polyreactivity
3,QVQLVESGGGLVQPGGSLRLSCAASGITFIPNALGWYRQAPGKEREFVAGITWSGGRTYYADSVKGRFTISRDNATNTVYLQMNSLKPEDTAVYYCAAEPPTYKLLDFWGQGTQVTVSS,low polyreactivity
4,QVQLVESGGGLVQPGGSLRLSCAASGRTLQRNAMVWYRQAPGKERELVAAISSSGGSTYYADSVKGRFTISRDNAKNTFYLQMNSLKPDDTAVYYCNTDSVYRYHYWGQGTEVTVSS,high polyreactivity
5,QVQLVESGGGLVQPGGSLRLSCAASGSIFSYNTMGWYRQAPGKERELVAAISGRGGSTNYADSVKGRFTISRDNAKNTVYLQMNSLKPEDTAVYYCAKETWVPYRNGFFPLKGDYWGQGTQVTVSS,low polyreactivity
6,QVQLVESGGGLVQPGGSLRLSCAASGSIFYGYTMGWYRQEPGKERELVAAIRKSGGSTNYADSVKWRFTISRDIAKNTVYLQMNSLKPEDTAVYYCAAAYYRGRGYFWGQGTQVTVSS,high polyreactivity
7,QVQLVESGGGLVQPGGSLRLSCAASGSTFDWYAMAWYRQAPGKQRELVAAISSDDSTYYADSVKGRFTISRDNAKNTVYLQMNSLKPEETAVYYCAFDVYSDYGDYGFWGQGTQVTVSS,low polyreactivity
8,QVQLVESGGGLVQSGGSLRLSCAASGFIFKLNAMGWYRPAPGKERELVATITRGGDTKYADSVKGRFTISRDNAKNTVYLQMNSLKPEDTAVEYCAARYTPSSYIYRFYNFYGYDYWGQGTQVTVSS,high polyreactivity
9,QVQLVESGGGLVQSGGSLRLSCAASGFIFLSYAMGWYRQAPGKERELVAAISRRGGSTYYADSVKGRFTISRDNAKYTVYLQMNSLKPEDNAVYYCAADYGRITYNYWGQGTQVTVSS,high polyreactivity
10,QVQLVESGGGLVQSGGSLRLSCAASGITFARYTMGWYRQAPGKVRELVAAISYAGNTYYADSVKGRFTISRDNAKNTVYLQMNSLKPEDTAVYYCAREYTYYPRWVGYDAYGEDYWGQGTQVTVSS,low polyreactivity
11,QVQLVESGGGLVQSGGSLRLSCAASGITFDYYDMGWYRQAPGKERELVATITSDGSTTYADSVKGRFTISRDNAKNTVYLQMNSLKPEDTAVYYCDKRYWSYQYGYRMYYWGQGTQVTVSS,high polyreactivity
12,QVQLVESGGGLVQSGGSLRLSCAASGRIFARNAMGWYRQAPGKEREFVAAITFSGGSTYYADSVKGRFTISRDNAKNTVYLQMNSLKPEDTAVYYCAARSWRVLTREDYWGQGTQVTVSS,high polyreactivity
13,QVQLVESGGGLVQSGGSLRLSCAASGRIFHYNAMGWYRQAPGKERELVAVITTIGGDTYYADSVKGRFTISRDNAKNTVYLQMNSLKPEDTAVYYCARDRYDNPYDQDLDYWGQGTQVTVSS,low polyreactivity
14,QVQLVESGGGLVQSGGSLRLSCAASGRIFRYYAMGSYRQAPGKERELVSAITRGGSTNYADSVKGRFTISRDNAKNTVYLQMNSLKPEDTADYYCATRQSWYPRWMDYWGQGSQVTVSS,high polyreactivity
15,QVQLVESGGGLVQSGGSLRLSCAASGRIFVPNAMGWYRQAPGKERELVAAITGSGGSTYADSVKGRFTISRDNAKNTVYLQMNSLNPEDTAVYYCAKKTWYSYYWGQGTQVTVSS,high polyreactivity
16,QVQLVESGGGLVQSGGSLRLSCAASGRTFRYYAMGWYRQAPGKERELVAAISSSGDRTYYADSVKGRFTISRDNAKNTVYLQMNSLKPEDTAVYFCAADRGARGDYWGQGTQVTVSS,high polyreactivity
17,QVQLVESGGGLVQSGGSLRLSCAASGRTFYRYAMGWYRQAPGKERELVAAISYSTTRTYYADSVKGRFTISRDIAKNTVYLQMNSLKPEETAVYYCAAYGWSRFGYDYWGQGSQVTVSS,high polyreactivity
18,QVQLVESGGGLVQSGGSLRLSCAASGSIFDYYAMGWYRQAPGKERELVASINSSGTGTYYADSVKGRFTFSRDNAKNTVSLQVNSMKPEDTAVYYCATRQAVGYSSGRGYGYWGQGTQETVSS,low polyreactivity
19,QVQLVESGGGLVQSGGSLRLSCAASGSIFGYYAMGWYRRAPGKERELVAAISVSGGSTYYADSVKGRFTISRDNAKNTVYLLMNSLKPEDTAVYYCNKVQGSWRVPYYYWGQGTQVTVSS,high polyreactivity
20,QVQLVESGGGLVQSGGSLRLSCAASGSIFYTNAMGWYRQAPGKERELVAAISYGGTTTYADSVKGRFTISRDNAKNTVYLQMNSQKPEDTAVYYCNADWLYYGYWGYGHIWYDYWGQGTQVTVSS,low polyreactivity
21,QVQLVESGGGLVQSGGSLRLSCAASGSSFLWYGMGSYRQAPGKERELVASISRGGGTDYADSVKGRFTISRDNAKNTVYLQMNSLKPEDTAVYYCAATGVKRYDHWGQGTQVTVSS,low polyreactivity

row,Sequence,polyreactivity (PSR sort gate)
1,QVQLVESGGGLVQSGGSLRLSCAASGSTFKYYAMGWYRQAPGKERELVAAISRSGGSTYYADSVKGRFTISRDNAKNTVYIQMNSLKPEDTAVYYCNAYYRYSFCELDKYGYWGQGTQVTVSS,high polyreactivity
2,QVQLVESGGGLVQSGGSLRLSCAASGSTFVSYDMGWYRQAPGKERELVADISWSGVSTYADSVKGRFTNSRDNAKNTVYLQMNSLKPEDTAVYYCAKDCDLYQRGGYYWGQGTQVTVSS,low polyreactivity
3,QVQLVESGGGLVQSGGSLRLSCAASGSTLSVYVMGWYRQAPGKERELVARIRSGGNTYYADSVKGRFTISRDNAKNTVYLLMNSLKPEDTAVYYCNADPSTGWYKYDYWGQGTQVTVSS,high polyreactivity
4,QVQLVESGGGLVQSGGSLRLSCAASGSTLYFKAMGWYRQAPGKERDLVAAITYDGGSTYYADSVKGRFTISRDNAKNTVYLQMNSLKPEDTAVYYCAGRTDGYRNNYWGQGTQVTVSS,high polyreactivity
5,QVQLVESGGGLVQSGGSLRLSCAASGYIFGYYAMGWYRQAPGKERELVADITWRGDSTYADSVKGRFTISRDNAKNTVYLQMNSLKPEDTAVYYCAADIATEYWYTGYDHWGQGTQVNVSS,low polyreactivity
6,QVQLVESGGGLVQSGGSLRLSCAASVRIFGPYVMGWYRQAPGKERELVAAISTSGTSTYDADSVKGRFTISRDNAKNTVYLQMNSLKPEDTAVYYCAKRSGALHRLMDYWGQGTQVTVSS,low polyreactivity
7,QVQLVESGGGLVQSGGSLRLSCAATGSTFWNYAMGWYRQAPGKERELVAAITRGSSTNYADSVKGRFTISRDNAKNTVYLQMNSMKPEDTAVYYCAKRVGRWSAFYYWGQGTQVTVSS,high polyreactivity
8,QVQLVESGGGLVQSGGSLRLSCAYSGRTFYRNTMGWYRHAPGKEREFVAAISATAGRTYYADSVKWRFTISRDNAKNTVYLQMNSLKPEDTAVYYCAAVPLRNRWANSWPALDYWGQGTLVTVSS,high polyreactivity
9,QVQLVESGGGLVQSGGSLRLSCDASGRIFSRYAMGWYIQAPGKEREFVAAISRSGTSTYYADSVKVRFTISRDNAKNTVYLQMNSLKPEDTAVYYCAADYPAVISIRRYDYWGQGTQVTVSS,low polyreactivity
10,QVQLVESGGGLVQSGGSLRLTCAASGTLFYAMGWSRQAPGKERELVATITQRGGSTYYADSVKGRFTLSRDNAKNTVYLQMNSLKPEDTAVYYCAAAIYRASRRRTSYSYDYCGQGTQVTVSS,high polyreactivity
11,QVQLVESGGGLVQTGGSLRISCAASGSTFYYYAIGWYRQAAGKERELVAGISWGGGSTYYEDSVKGRFTISRDNAKNTVYLQMNSLKPEDTAVYYCNALNPKSYDYWGHGTQVTVSS,low polyreactivity
12,QVQLVESGGGLVQTGGSLRLSCASSGRIFFDNAMGWYSQAPGKERELVAGIDSGGSTYYADSVKGRFSISRDNAKNTVYLQMNRLKPEDTAVYYCNADYPPSTQSPLLQSYDYWGHGTQVTVSS,low polyreactivity
13,QVQLVESGGGLVQVGGSLRLSCAASGFTFLGYAMGWYRQAPGKEREMVAAITTGGGSTYYAVSVKGRFTISRDNATTTVYLQMNSLKPEDTAVYYCAARRNVRPRYGYWGQGTQVTVSS,high polyreactivity
14,QVQLVESGGGLVQVGGSLRLSCAASGLTFYANAMGWYRQAPGKEREVVAAIRKRGGSTYYADSVKGRFTISRDNAKNTVYFQMNSLKPEDTAVYYGATYGGPFSVGTGFHDVRYDYWGHGTQVTVSS,low polyreactivity
15,QVQLVESGGGLVQVGGSLRLSCAASGSILTDYGMGWNRPAPGKERELVAVIDFSSGSTYYADSVKGRFTISRDNAKNTVYLQMNSLKPEDTAVYYCAAGPDPLGEDYWGQGTQVTVSS,low polyreactivity
16,QVQLVESGGGLVRAGGSLRLSCAASGSTFGENAMGWYRQAPGKERELVAAISDSGGDTYYADSVKGRFTISRDNAKNTVYLQMNSLKPEDTAVYYCAADRYGYWYAYYSWGQGTQVTVSS,low polyreactivity
17,QVQLVESGGGLVRAGGSLRLSCAASGSTFRQYAMGWYRQAPGKERDLVAAINWSGSSTYYADSVKGRFTISRDNAKNTVYLQMNSLKPEATAVYYCAARRVLATFQHSNSHYYWGQGTQVTVSS,high polyreactivity
18,QVQLVESGGGLYQAGGSLRLSCAASGRIFYCYAMGSYRQAPGKERELVAAISWRGGRTYYADSVKGRFTISRDNAKNTVYLQMNSLIPEDTAVYYCNTDFPPQGQLRNMSYWGQGTQVTVSS,high polyreactivity
19,QVQLVESGGGSVQAGGRLRLSCAASGSIFGQYAMGWYRQAPGKERELVAAISDTDSTNYADSVKGRFTISRDNAKNTVYLQMNSLKPEDTAVYYCNADTWGYRLGYYYYKFDYWGQGTQVTVSS,low polyreactivity
20,QVQLVESGGGSVQAGGSLRISCAASGSIFSLYAMGWYRQAPGKERELVASISSDGSTYYADSVKGRFTISRDNAKNTVYLQMNSLKPEDTAVNYCATAVYSRYSPYAGYYYWGQGTQVTVSS,low polyreactivity
